Changes are numbered by the printed parent chain.
B1: Example 381 (peptide)
chain: HXQGTXTSDYXIXLDXKAQXAFIEYLLEGGPSSGEPPPE
modifications: synthetic construct; SITE 2: note = 2-Aminoisobutyric Acid; SITE 6: note = alpha-methyl-2-fluoro-L-phenylalanine; SITE 11: note = alpha-methyl-L-serine; SITE 13: note = alpha-methyl-leucine; SITE 16: note = L-ornithine; SITE 17: note = Lysine is chemically modified through conjugation of the epsilon
B2: Example 382 (peptide)
chain: YXQGTFTSDYXIXLDKKAQXAFIEYLIEGGPSSGAPPPS
modifications: synthetic construct; SITE 2: note = 2-Aminoisobutyric Acid; SITE 11: note = alpha-methyl-L-serine; SITE 13: note = alpha-methyl-leucine; SITE 17: note = Lysine is chemically modified through conjugation of the epsilon-amino group of the Lysine side chain with (2-[2-(2-Amino-ethoxy)-ethoxy]-acetyl)2-
B3: Example 383 (peptide)
chain: YXQGTXTSDYSIXLDKKAAXAFIEYLIETGPSSGAPPPSEG
modifications: synthetic construct; SITE 2: note = 2-Aminoisobutyric Acid; SITE 6: note = alpha-methyl-2-fluoro-L-phenylalanine; SITE 13: note = alpha-methyl-leucine; SITE 17: note = Lysine is chemically modified through conjugation of the epsilon-amino group of the Lysine side chain with (2-[2-(2-Amino-ethoxy)-et)
B4: Example 384 (peptide)
chain: B1 chain with H1Y, A21X, E35A, E39S
modifications: synthetic construct; SITE 2: note = 2-Aminoisobutyric Acid; SITE 6: note = alpha-methyl-2-fluoro-L-phenylalanine; SITE 11: note = alpha-methyl-L-serine; SITE 13: note = alpha-methyl-leucine; SITE 16: note = L-ornithine; SITE 17: note = Lysine is chemically modified through conjugation of the epsilon
B5: Example 385 (peptide)
chain: B2 chain with F6X, X11S, X13L, I27L
modifications: not fully specified; synthetic construct; SITE 2: note = 2-Aminoisobutyric Acid; SITE 6: note = alpha-methyl-2-fluoro-L-phenylalanine; SITE 17: note = Lysine is chemically modified through conjugation of the epsilon-amino group of the Lysine side chain with (2-[2-(2-Amino-ethoxy)-ethoxy]-acetyl)2-(gamma-Glu)-CO-(CH2 )18
B6: Example 386 (peptide)
chain: YXQGTXTSDYSILLDKKAQXAFIEYLLEGGPSSGAPPPE
modifications: not fully specified; synthetic construct; SITE 2: note = 2-Aminoisobutyric Acid; SITE 6: note = alpha-methyl-2-fluoro-L-phenylalanine; SITE 17: note = Lysine is chemically modified through conjugation of the epsilon-amino group of the Lysine side chain with (2-[2-(2-Amino-ethoxy)-ethoxy]-acetyl)2-(gamma-Glu)-CO-(CH2 )18
B7: Example 387 (peptide)
chain: B6 chain with L27E, E39S
modifications: not fully specified; synthetic construct; SITE 2: note = 2-Aminoisobutyric Acid; SITE 6: note = alpha-methyl-2-fluoro-L-phenylalanine; SITE 17: note = Lysine is chemically modified through conjugation of the epsilon-amino group of the Lysine side chain with (2-[2-(2-Amino-ethoxy)-ethoxy]-acetyl)-(gamma-Glu)-CO-(CH2) 16-
B8: Example 388 (peptide)
chain: B6 chain with L27E
modifications: not fully specified; synthetic construct; SITE 2: note = 2-Aminoisobutyric Acid; SITE 6: note = alpha-methyl-2-fluoro-L-phenylalanine; SITE 17: note = Lysine is chemically modified through conjugation of the epsilon-amino group of the Lysine side chain with (2-[2-(2-Amino-ethoxy)-ethoxy]-acetyl)-(gamma-Glu)-CO-(CH2) 16-
B9: Example 35 (peptide)
chain: YXQGTFTSDFSKXLDKKAQXAFIEYLLEGGPSSGEPPPEEG
modifications: not fully specified; Aib, αMeL; acylated Lys; C-terminal amide; synthetic construct; SITE 2: note = 2-Aminoisobutyric Acid; SITE 13: note = alpha-methyl-leucine; SITE 17: note = Lysine is chemically modified through conjugation of the epsilon-amino group of the Lysine side chain with (2-[2-(2-Amino-ethoxy)-ethoxy]-acetyl)-(gamma-Glu)-CO-(CH2) 18-CO2H; SITE 20: n
B10: Example 389 (peptide)
chain: B1 chain with H1Y, I12S, A21X, Y25X
modifications: synthetic construct; SITE 2: note = 2-Aminoisobutyric Acid; SITE 6: note = alpha-methyl-L-phenylalanine; SITE 11: note = alpha-methyl-L-serine; SITE 13: note = alpha-methyl-leucine; SITE 16: note = L-ornithine; SITE 17: note = Lysine is chemically modified through conjugation of the epsilon-amino gr
B11: Example 390 (peptide)
chain: YXQGTXTSDYXSLLDXKAQXXFIEXLLEGGPSSGEPPPE
modifications: synthetic construct; SITE 2: note = 2-Aminoisobutyric Acid; SITE 6: note = alpha-methyl-L-phenylalanine; SITE 11: note = alpha-methyl-L-serine; SITE 16: note = L-ornithine; SITE 17: note = Lysine is chemically modified through conjugation of the epsilon-amino group of the Lysine side chain with (2-[
B12: Example 391 (peptide)
chain: B1 chain with H1Y, A21X
modifications: synthetic construct; SITE 2: note = 2-Aminoisobutyric Acid; SITE 6: note = alpha-methyl-L-phenylalanine; SITE 11: note = alpha-methyl-L-serine; SITE 13: note = alpha-methyl-leucine; SITE 16: note = L-ornithine; SITE 17: note = Lysine is chemically modified through conjugation of the epsilon-amino gr
B13: Example 392 (peptide)
chain: B6 chain with L27E, E39S
modifications: synthetic construct; SITE 2: note = 2-Aminoisobutyric Acid; SITE 6: note = alpha-methyl-L-phenylalanine; SITE 17: note = Lysine is chemically modified through conjugation of the epsilon-amino group of the Lysine side chain with (2-[2-(2-Amino-ethoxy)-ethoxy]-acetyl)-(gamma-Glu)-CO-(CH2) 16-CO2H; SIT

Target: human glucagon receptor (human) (UniProt P47871)
Assay: cell-based or functional assay

Sequence of human glucagon receptor (human) (P47871 26-477): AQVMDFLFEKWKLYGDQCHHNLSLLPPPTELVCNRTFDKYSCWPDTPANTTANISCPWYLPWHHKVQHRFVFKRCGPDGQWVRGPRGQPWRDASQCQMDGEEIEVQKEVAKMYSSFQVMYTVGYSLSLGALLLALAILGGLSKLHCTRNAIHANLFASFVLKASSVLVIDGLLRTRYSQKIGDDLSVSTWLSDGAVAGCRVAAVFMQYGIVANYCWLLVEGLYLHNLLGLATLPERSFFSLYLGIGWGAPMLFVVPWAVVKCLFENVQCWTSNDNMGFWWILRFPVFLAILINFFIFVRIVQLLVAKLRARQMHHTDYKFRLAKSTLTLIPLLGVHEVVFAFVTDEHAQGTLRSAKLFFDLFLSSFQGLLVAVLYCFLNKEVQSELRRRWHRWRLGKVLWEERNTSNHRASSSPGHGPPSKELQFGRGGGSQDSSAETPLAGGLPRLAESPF

Row | Binder | Relative cAMP EC50 | cAMP Rel EC50, nM (1% HSA) | cAMP Rel EC50 (in the presence of 1% HSA)
1 | B1 | 1.39 nM | 176 nM | 
2 | B2 | 3.72 nM | 1050 nM | 
3 | B3 | 1.27 nM | 530 nM | 
4 | B4 | 5.77 nM | 1730 nM | 
5 | B5 | 1 nM | 700 nM | 
6 | B6 | 1.7 nM | 734 nM | 
7 | B7 | 2.14 nM | 184 nM | 
8 | B8 | 2.15 nM | 603 nM | 
9 | B9 | 4.32 nM |  | 1390 nM
10 | B10 | 4.03 nM | 889 nM | 
11 | B11 | 3.08 nM | 549 nM | 
12 | B12 | 3.04 nM | 808 nM | 
13 | B13 | 3.02 nM | 611 nM | 

Target: hGLP-1R (Homo sapiens, UniProt P43220)
Assay: cell-based or functional assay

Sequence of hGLP-1R (P43220 24-463): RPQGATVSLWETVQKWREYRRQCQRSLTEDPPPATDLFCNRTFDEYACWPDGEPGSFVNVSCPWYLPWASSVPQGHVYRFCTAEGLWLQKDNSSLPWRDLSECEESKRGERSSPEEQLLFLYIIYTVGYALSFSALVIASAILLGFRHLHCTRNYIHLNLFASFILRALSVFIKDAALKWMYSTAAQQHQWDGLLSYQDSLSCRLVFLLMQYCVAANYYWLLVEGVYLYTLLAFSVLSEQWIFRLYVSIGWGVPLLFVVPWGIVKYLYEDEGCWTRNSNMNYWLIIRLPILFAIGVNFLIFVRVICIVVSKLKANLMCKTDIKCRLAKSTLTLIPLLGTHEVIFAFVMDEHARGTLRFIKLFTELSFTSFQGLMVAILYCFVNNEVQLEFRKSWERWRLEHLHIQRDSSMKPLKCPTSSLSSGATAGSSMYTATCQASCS

Row | Binder | Relative cAMP EC50 | cAMP Rel EC50, nM (1% HSA) | cAMP Rel EC50 (in the presence of 1% HSA)
14 | B1 | 0.157 nM | 24.5 nM | 
15 | B2 | 0.291 nM | 61.5 nM | 
16 | B3 | 0.258 nM | 79.1 nM | 
17 | B4 | 0.133 nM | 19.3 nM | 
18 | B5 | 0.235 nM | 86.1 nM | 
19 | B6 | 0.278 nM | 98.6 nM | 
20 | B7 | 0.255 nM | 26.5 nM | 
21 | B8 | 0.373 nM | 52.5 nM | 
22 | B9 | 3.05 nM |  | 1130 nM
23 | B10 | 0.134 nM | 18.9 nM | 
24 | B11 | 0.134 nM | 19.6 nM | 
25 | B12 | 0.199 nM | 34.4 nM | 
26 | B13 | 0.253 nM | 41.5 nM | 

Target: T1, human GIP receptor (human) (UniProt P48546)
T1 sequence (looked up): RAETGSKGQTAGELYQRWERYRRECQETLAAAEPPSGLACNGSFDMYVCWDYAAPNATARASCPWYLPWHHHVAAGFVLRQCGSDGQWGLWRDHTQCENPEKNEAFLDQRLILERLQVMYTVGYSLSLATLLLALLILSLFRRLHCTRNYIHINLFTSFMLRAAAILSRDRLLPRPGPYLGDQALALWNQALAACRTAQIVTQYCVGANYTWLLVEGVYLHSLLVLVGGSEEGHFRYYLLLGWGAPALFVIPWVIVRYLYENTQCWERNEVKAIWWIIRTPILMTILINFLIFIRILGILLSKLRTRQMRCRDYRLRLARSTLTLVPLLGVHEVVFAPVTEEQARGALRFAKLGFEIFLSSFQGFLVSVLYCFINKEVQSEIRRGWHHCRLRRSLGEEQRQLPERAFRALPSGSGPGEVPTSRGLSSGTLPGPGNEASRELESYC
Assay: cell-based or functional assay

Row | Binder | Relative cAMP EC50 | cAMP Rel EC50, nM (1% HSA) | cAMP Rel EC50 (in the presence of 1% HSA)
27 | B1 | 0.0156 nM | 7.01 nM | 
28 | B2 | 0.0368 nM | 17.7 nM | 
29 | B3 | 0.0406 nM | 32.3 nM | 
30 | B4 | 0.0152 nM | 3.63 nM | 
31 | B5 | 0.0141 nM | 4.03 nM | 
32 | B6 | 0.0156 nM | 5.62 nM | 
33 | B7 | 0.0276 nM | 5.64 nM | 
34 | B8 | 0.0462 nM | 14.1 nM | 
35 | B9 | 0.55 nM |  | 194 nM
36 | B10 | 0.0354 nM | 18.3 nM | 
37 | B11 | 0.122 nM | 37.8 nM | 
38 | B12 | 0.0298 nM | 11.5 nM | 
39 | B13 | 0.0571 nM | 28.7 nM | 

Source: patent US20240270821A1, “GIP/GLP1/GCG TRI-RECEPTOR AGONISTS AND USES THEREOF” (priority 2023, published 2024)
